From article PMC12729873, “Linoleic Hydroperoxides Are Potent Hyperoxidative Agents of Sensitive and Robust Typical 2-Cys Peroxiredoxins” (Antioxidants, 2025) come the findings set out here.

What all share (assay): purified protein
The subject of series [1] is CC(C)(OO)c1ccccc1. Particulars: S. cerevisiae Trx1/TrxR1, NADPH 150 µM, HEPES pH 7.4, 37 °C, DTPA 100 µM, azide 1 mM, fit to low-substrate phase only.
Series [2] relates to CC(C)(OO)c1ccccc1. The series is classed as biochemical, Pseudomonas aeruginosa. Particulars: E. coli Trx/TrxR, NADPH 150 µM, HEPES pH 7.4, 37 °C, DTPA 100 µM, azide 1 mM, fit to low-substrate phase only.
Substrate in the series “purified protein”: CC(C)(OO)c1ccccc1
Particulars: E. coli Trx/TrxR, NADPH 150 µM, HEPES pH 7.4, 37 °C, DTPA 100 µM, azide 1 mM, fit to low-substrate phase only.

HsPrx2 (Homo sapiens): in the series on CC(C)(OO)c1ccccc1 [1], the Km was 57 (±17) µM; the Vmax (as a rule, the rate approached at saturating substrate) worked out at 101 µM/min; the kcat (usually the maximal rate divided by the concentration of active sites) came out at 0.56 ± 0.09 s⁻¹; the kcat/Km – broadly, the second-order rate constant that governs catalysis at low substrate concentration – was determined as 9800 ± 1300 M⁻¹ s⁻¹.

For “PaAhpC (Pseudomonas aeruginosa UCBPP-PA14)”, in the series with CC(C)(OO)c1ccccc1 [2], the Km is 82 (±14) µM, the Vmax was determined as 34.2 µM/min, the catalytic constant (kcat) stood at 0.18 ± 0.01 s⁻¹ and the kcat/Km was determined as 2000 ± 200 M⁻¹ s⁻¹.

B1: SeAhpC (Staphylococcus epidermidis RP62A) (protein)
chain: MSLINKEILPFTAQAYDPKKDEFKEVTQEDFKGSWNVVCFYPADFSFVCPTELEDLQNQYAKLQELGVNVYSVSTDTHFVHKAWHDHSDAISKLEYSMIGDPSQTITRNFDVLDEETGLAQRGTFIIDPDGVVQAAEINADGIGRDASTLVNKIKAAQYVRQHPGEVCPAKWEEGSESLQPGLDLVGKI
As to B1, in “purified protein”, the Km is given as 76 (±10) µM, the Vmax stood at 35.4 µM/min, the kcat worked out at 0.19 ± 0.01 s⁻¹ and the specificity constant (kcat/Km) worked out at 2500 ± 100 M⁻¹ s⁻¹.
